From patent publication US20020192214A1 (published 2002)

T1: human eosinophil eotaxin receptor CC CKR3, stably expressed in AML14.3D10 cells (human, UniProt P51677 1-355)
T1 construct: Full-length cDNA in pBJ/NEO transfected into the AML14.3D10 eosinophilic line; also called AML14/CCCKR3.16
T1 sequence: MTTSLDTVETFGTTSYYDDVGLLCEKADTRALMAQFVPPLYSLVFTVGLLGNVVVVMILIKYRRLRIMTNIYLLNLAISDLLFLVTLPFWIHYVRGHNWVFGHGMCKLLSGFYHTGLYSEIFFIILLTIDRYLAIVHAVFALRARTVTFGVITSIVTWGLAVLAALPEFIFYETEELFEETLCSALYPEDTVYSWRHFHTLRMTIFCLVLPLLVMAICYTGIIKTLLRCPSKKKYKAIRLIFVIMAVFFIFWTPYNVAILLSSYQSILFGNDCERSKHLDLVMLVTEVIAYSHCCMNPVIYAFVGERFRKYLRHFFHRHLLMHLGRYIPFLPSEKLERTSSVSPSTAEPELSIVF

T2: endogenous eosinophil eotaxin receptor (CC CKR3) on primary human eosinophils (human, UniProt P51677 1-355)
T2 construct: The target as printed is 'eosinophils' (primary cells from allergic and asthmatic donors); It also says eosinophils express a much lower level of CC CKR1; also called primary eosinophils
T2 sequence: T1 sequence

B1: MIP-1β (ligand, UniProt P13236 24-92, looked up)
chain: APMGSDPPTACCFSYTARKLPRNFVVDYYETSSLCSQPAVVFQTKRSKQVCADPSESWVQEYVYDLELN
notes: also called macrophage inflammatory protein 1β
B2: MCP-3 (ligand)
chain: not shown
B3: MIP-1α (ligand, UniProt P10147 24-92, looked up)
chain: SLAADTPTACCFSYTSRQIPQNFIADYFETSSQCSKPGVIFLTKRSRQVCADPSEEWVQKYVSDLELSA
notes: also called macrophage inflammatory protein 1α
B4: murine eotaxin (ligand, UniProt P48298 24-97, looked up)
chain: HPGSIPTSCCFIMTSKKIPNTLLKSYKRITNNRCTLKAIVFKTRLGKEICADPKKKWVQDATKHLDQKLQTPKP
B5: human eotaxin (ligand)
chain: not shown
B6: RANTES (ligand, UniProt P13501 24-91, looked up)
chain: SPYSSDTTPCCFAYIARPLPRAHIKEYFYTSGKCSNPAVVFVTRKNRQVCANPEKKWVREYINSLEMS

Assays:
[1] = target: T1, human eosinophil eotaxin receptor CC …; experiment: competition against 125I-human eotaxin on AML14.3D10 cells expressing CC CKR3
Method: (§1) Results with murine eotaxin were essentially identical. […] Clearly, CC CKR3 is a high affinity receptor for eotaxin.
(§2) Competition binding experiments were carried out against the indicated iodinated ligand as follows and as described herein. Equilibrium binding of β-chemokines to AML14.3D10 cells expressing CC CKR3 and to primary eosinophils was examined with increasing concentrations of unlabelled human eotaxin, murine eotaxin, RANTES, MCP-3, or MCP-1 to compete against fixed concentrations of either ¹²⁵I-human eotaxin, or ¹²⁵I-MCP-3. Also the competition with 100 nM concentrations of MIP-1α, and MIP-1β was examined. The experiments were carried out either with AML14.3D10 cells expressing CC CKR3, or with eosinophils. All values are the averages of triplicate determinations. Typically, 4000-6000 cpm of iodinated ligand was bound in the absence of compeititor with S/N ratios exceeding 15. Human and murine eotaxin are the human and murine chemokines, respectively. “N.B.” means that no competition was observed. All results are the averages of the number of experiments shown in parenthesis.

[2] = target: T1, human eosinophil eotaxin receptor CC …; experiment: cell-based or functional assay
[3] = target: T2, endogenous eosinophil eotaxin receptor …; experiment: competition against 125I-human eotaxin on primary eosinophils
Method: (§3) To provide additional pharmacological evidence, binding studies were conducted on primary eosinophils. […] The number of binding sites varied by less than 2-fold for the 3 donors used in the studies. […] Similarly, the Kd's obtained by competition against ¹²⁵I-MCP-3 on eosinophils are effectively indistinguishable to those measured against cloned CC CKR3 (see Table 1). All of the observations and measurements, taken together with the Western blot showing expression of CC CKR3, verify that CC CKR3 is the eosinophil eotaxin receptor, and appears to be largely responsible for mediating the effects of most β-chemokines on eosinophils.
Competition binding experiments were carried out against the indicated iodinated ligand as follows and as described herein. Equilibrium binding of β-chemokines to AML14.3D10 cells expressing CC CKR3 and to primary eosinophils was examined with increasing concentrations of unlabelled human eotaxin, murine eotaxin, RANTES, MCP-3, or MCP-1 to compete against fixed concentrations of either ¹²⁵I-human eotaxin, or ¹²⁵I-MCP-3. Also the competition with 100 nM concentrations of MIP-1α, and MIP-1β was examined. The experiments were carried out either with AML14.3D10 cells expressing CC CKR3, or with eosinophils. All values are the averages of triplicate determinations. […]

[4] = target: T2, endogenous eosinophil eotaxin receptor …; experiment: competition against 125I-human eotaxin, primary eosinophils
Method: as §3, §2

[5] = target: T2, endogenous eosinophil eotaxin receptor …; experiment: competition against 125I-MCP-3, primary eosinophils
Method: as §3, §2

[6] = target: T1, human eosinophil eotaxin receptor CC …; experiment: competition against 125I-human eotaxin, intact AML14.3D10 cells expressing CC CKR3
Method: as §1, §2

[7] = target: T1, human eosinophil eotaxin receptor CC …; experiment: competition against 125I-MCP-3, intact AML14.3D10 cells expressing CC CKR3
Method: Competition studies were also carried out against ¹²⁵I-MCP-3. […] Thus despite some small quantitative differences the overall ligand selectivity of the receptor is the same whether measured by competition against eotaxin or MCP-3, and the order of potency, eotaxin>MCP-3=RANTES>>MCP-1, is identical.
as §2

| Binder | binding result [1] | Ca^2+-flux (intracellular Ca^2+ levels) [2] | binding result [3] | Kd [4] | Kd [5] | Kd [6] | Kd [7] |
| --- | --- | --- | --- | --- | --- | --- | --- |
| B1 | no binding (tested: 100 nM) | > 1 µM | no binding (tested: 100 nM) |  |  |  |  |
| B2 |  |  |  | 3000 pM | 1100 pM | 2700 pM | 700 pM |
| B3 | no binding (tested: 100 nM) | > 1 µM | no binding (tested: 100 nM) |  |  |  |  |
| B4 |  |  |  | 100 pM | 200 pM | 100 pM | 300 pM |
| B5 |  |  |  | 100 pM | 200 pM | 100 pM | 200 pM |
| B6 |  |  |  | 2600 pM | 900 pM | 3100 pM | 500 pM |
